Test: yeast display, Sf9 membrane polyspecificity reagent, FACS + sequencing; frameworks hold sequencing errors
Method in brief: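 Nanobodies came from a synthetic yeast display library in Saccharomyces cerevisiae BJ5465, induced with galactose for 36–48 hours and stained for 1 hour at 4 °C with 10% biotinylated, detergent-solubilized Sf9 membrane reagent. Cells were enriched on streptavidin microbeads and then FACS-sorted, with low and high (top ~1%) gates set on anti-HA fluorescence for expression and streptavidin fluorescence for reagent binding. Each polyreactivity label reflects the gate a clone came from. Genes were amplified by colony PCR, sequenced by MiSeq 2 × 250 and filtered by CDR length.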

Sequence: QVQLVESGGGKVQAGGSLRLSCAASGLTFWSYAMGWYRQAPGKERELVAAISGTGGRTYYADSVKGRFTITRDNAKNTVYLQMTSLKPEDTAVYYCTARTWRWYFTFDYWGQGTQVNVSS
- polyreactivity (PSR sort gate): high polyreactivity

Sequence: QVQLVESGGGKVQAGGSLRLSCPPSGRTFYYYAMGWYRQAPGKVRELVAVIRSSGDSTYYADSVKGRFTISRDNEKNTVYLQMKSLKPDDTAVDYCAADAPSRSYSWHPRYYYWGQGSQVTVSS
- polyreactivity (PSR sort gate): low polyreactivity

Sequence: QVQLVESGGGLAQAGGSLRLTCAASGNTFPLYPMGWYRQAPGKERELFAAISQRGGSTYYSDSVKGRFTISRDYAKNTVYLQMNSLKPEDTAFYYCAATWADEYQYRRYYYWGQGTQVTVSS
- polyreactivity (PSR sort gate): high polyreactivity

Sequence: QVQLVESGGGLDQAGGSLPLSCASSGSIFRSNAMGWSRQPPAKAREMVAAITESGDTTNYADSVKGRFTISRDNAKNTVYLQMNSLKPEDTAVYYCNAGWTMSYVYSQMDYWGQGTQVTVSS
- polyreactivity (PSR sort gate): low polyreactivity

Sequence: QVQLVESGGGLDQAGGSLRLICAASGSTFGGYVMGWYRQAPGKERELVAAISRSGASTYYADSVKGRFTISRDNAKNTVYLQMNSLKPEDTAVYYCAAYQARGMDYWGQGTQVTVSS
- polyreactivity (PSR sort gate): high polyreactivity

Sequence: QVQLVESGGGLDQAGGSLRLICASSGRTFYPNAMGWYRQAPGKEREFVAAITWSGGGTFYADSVKGRFTISRDHAKNTVYLQMLSLNPEDTAVYYCAARLDTYQTQSVITPAALYYWGQGTQETVSS
- polyreactivity (PSR sort gate): low polyreactivity

Sequence: QVQLVESGGGLDQAGGSLRLSCAAAGFIFHLNAMGWYRQAPGKERELLASIRSSGDSTHYADSEKGRFTISRDNAKITVYLQMNSLKPEDTAVFYCNADFYPAGTLTYDYWGQGTQVTVSS
- polyreactivity (PSR sort gate): low polyreactivity

Sequence: QVQLVESGGGLDQAGGSLRLSCAASARTFTYYAMGWYRQAPGKERELVAAIRWTGDSTYYADSVKGRFTISRDYAKNTVYLQMNSLKPEDTAVYYCAKQARWQYDGGIRWYYYWGQGTQVTVSS
- polyreactivity (PSR sort gate): high polyreactivity

Sequence: QVQLVESGGGLDQAGGSLRLSCAASGFAFSYYAMGWYRQAPGKEREFVASIDWSGGSTYYADSVKGRFTISRDNAKNTVYLQMNSLKPEDTAVYYCAAELDYFPGYDYWGQGTQVTVSS
- polyreactivity (PSR sort gate): low polyreactivity

Sequence: QVQLVESGGGLDQAGGSLRLSCAASGFIFFINDMGWYRQAPGKERELVAAISWSGGSTYYADSVKGRFTISRDNAKNTVYLQMNSLKPEDTAVYYCNTDVPTAQYDYWGQGTQVTVSS
- polyreactivity (PSR sort gate): low polyreactivity

Sequence: QVQLVESGGGLDQAGGSLRLSCAASGFIFFRYAMGWYRQAPGKERELVAGNNGSDGSTYYADSVKGRFTISRDNAKNTVYLQMNSLKPEDTAVYYCAAEGGFSPQPYNLYYATPREDYWGQGTQVTVSS
- polyreactivity (PSR sort gate): low polyreactivity

Sequence: QVQLVESGGGLDQAGGSLRLSCAASGFIFPIYAMGWNRQAPGKERELVAAISWSGGSTYYADSVKGRFTISRDNAKNTVYLQMNSLKPEDTAVYYCAKRYPYYPYDYWGQGTQVTVSS
- polyreactivity (PSR sort gate): high polyreactivity

Sequence: QVQLVESGGGLDQAGGSLRLSCAASGFIFPVYAMGWSRPAPGKERELVAAIRRGGSTNYADSVKGRFTISRDNAKNTVYVQMNSLKPEDTAVYYCAKTIGLKHEDEYWGQGTQVTVSS
- polyreactivity (PSR sort gate): low polyreactivity

Sequence: QVQLVESGGGLDQAGGSLRLSCAASGFIFYSNAMGWYRQAPGKERELVAAISRGGGSTYYADSVKGRFTISRDNAKNTVYLQLNSLKPEDTAVYYCAKRRLSPQDDYWGQGTQVTLSS
- polyreactivity (PSR sort gate): high polyreactivity

Sequence: QVQLVESGGGLDQAGGSLRLSCAASGFIINRNAMGWYRQAPGKERELVADITGGSTYYADSVKGRFTISRDNAKNTVYLQMNSLKPEDNAVYYCAADVLRITTLLFRGTGFDSWGHGTQVTVSS
- polyreactivity (PSR sort gate): low polyreactivity

Sequence: QVQLVESGGGLDQAGGSLRLSCAASGFIYSYAMGWYRQAPGKERELVAAIRRGGPTNYADSVKGRFSISRDNAKTTVYLPMNSRKPEDTAVYYCAADSWFRRNEYDDWGQGTQVTVAS
- polyreactivity (PSR sort gate): high polyreactivity

Sequence: QVQLVESGGGLDQAGGSLRLSCAASGFTLDYYTMGRYRQAPGKERELVAAISWIGTSTYYADSVKGRFTISRDNAKNTVYLQMNSLKPEDTAVYYCAAVGASVDDYYWGQGTQVTVSS
- polyreactivity (PSR sort gate): high polyreactivity

Sequence: QVQLVESGGGLDQAGGSLRLSCAASGIIFARNAMGWYRQAPGKERELVAAISGSGGRTYYADSVKGRFTISRDNAKNTVYLQMNSLKPEDTAVYYCAAEYTYRAVALDYWGQGTQVTVSS
- polyreactivity (PSR sort gate): high polyreactivity

Sequence: QVQLVESGGGLDQAGGSLRLSCAASGIIFLSYAMGRYRQAPGKERELVAAIRSRGDSTYYADSVKGRFTNSRDNAKNTVYLQMNSLKPEDTAVYYCNARQRRYPYGYWGQGTQVTVSS
- polyreactivity (PSR sort gate): high polyreactivity

Sequence: QVQLVESGGGLDQAGGSLRLSCAASGIIFVSNAMGWYRQAPGKERELVATITWTGGSTYYADSVKGRFTISRDNAKNTVYLQMNSLKPEDTAVYYCAADLSIRYDHEYGYWGQGTQVTVSS
- polyreactivity (PSR sort gate): low polyreactivity

Sequence: QVQLVESGGGLDQAGGSLRLSCAASGITFTRNAMGWYRQAPGKERELVAAITKSGGGTYYADSVKGRFTISRDNAKNTVYLQMNSLKPEDTAVYYCAAYTDKYGDYNYWGQGTLVTVSS
- polyreactivity (PSR sort gate): high polyreactivity

Sequence: QVQLVESGGGLDQAGGSLRLSCAASGITFVWNAMGWYRQAPGKERELVATISRGGVRTYYADSVKGRFTISRDNAKNTVYLQMNSLKPEDTAVYYCNKTTLLTVEYDYWGQGTQLTVSS
- polyreactivity (PSR sort gate): low polyreactivity

Sequence: QVQLVESGGGLDQAGGSLRLSCAASGLIFGNYANRGYTQAPGKERELVAALSSGGSTHYADSVKGRFTISRDNAKNTVYLQMHSLNPEDTAVYYCAAGYRYAGNGQIANTGGYYWGQGTQVTVSW
- polyreactivity (PSR sort gate): low polyreactivity

Sequence: QVQLVESGGGLDQAGGSLRLSCAASGLIFLVNAMGWYRQPPWKERDLVAAIDLDGGITYADSVKGRFTISRDNAKNTVYLQMNSLKPEDTAVYYCAADPSSYGRFTYDYWGQGTQVTVSS
- polyreactivity (PSR sort gate): low polyreactivity

Sequence: QVQLVESGGGLDQAGGSLRLSCAASGLIFYAYTMGWYRQAPWKERELVAAINYSGGSTYYADSVKGRFTISRDNAKNTVYLQMNSLKPEDTAVYYCATRTGHWGQGTQVTVSS
- polyreactivity (PSR sort gate): low polyreactivity

Sequence: QVQLVESGGGLDQAGGSLRLSCAASGLIFYYYAMGWYRQAPGKERELVAAISSNGGSTYYADSVKGRFTISRDNAKNTVYLQMNSLKPEDTAGYYCAAVGRVDGYRYDYWGQGTQVTVSS
- polyreactivity (PSR sort gate): high polyreactivity

Sequence: QVQLVESGGGLDQAGGSLRLSCAASGLTFDANAMGWYRQAPGKERELVAAISSGGSTYADSVKGRFTISRDNAKNTVYLQMNSLKPEDTAVYYCNAVSIDVIQGDYNYWGQGTQVTVSS
- polyreactivity (PSR sort gate): low polyreactivity

Sequence: QVQLVESGGGLDQAGGSLRLSCAASGRIFGYYAMGWYRQAPGKERELVAAISRSGGSTNYADSVKGRFTISRDTAKNTVYLQMNSLKPEDTAVYYCAVRYPYYSPFGGYDYWGQGTQVTVSS
- polyreactivity (PSR sort gate): high polyreactivity

Sequence: QVQLVESGGGLDQAGGSLRLSCAASGRIFIDNTMAWYRQAPGKERELVAAISWSGGSTYYADSVKGRFTISRDNAKNTVYLQMNSLKPEDTAVYYCAARSLRSNGRTWAVTYDYWGQGTQVTVSS
- polyreactivity (PSR sort gate): low polyreactivity

Sequence: QVQLVESGGGLDQAGGSLRLSCAASGRIFRCYAMGWYREAPGKERELVAAISWSSGNTYYADSVKGRFTISRDNAKNTVYLQMNSLKAEDTAVYYCAADFKPTSRSNKYYYWGQGTQVTVSS
- polyreactivity (PSR sort gate): high polyreactivity

Sequence: QVQLVESGGGLDQAGGSLRLSCAASGRIFTVYGMGWYRQAPGKERELVAAISWSGGGTYYADSVKGRFTISRDNAKNTVYLQMNSLKPEDTAVYYCNADRQYTWSLVFFSSDYDYWGQGTQVTVSS
- polyreactivity (PSR sort gate): low polyreactivity

Sequence: QVQLVESGGGLDQAGGSLRLSCAASGRIFTYYTMGWYRQAPGKERELVATIRWSGGRTYYADSVKGRFTISRDNAKNTVYLQMNSLKPEDTAVYYCAANTYWRHYTPYTYGYWGQGTQVTVSS
- polyreactivity (PSR sort gate): high polyreactivity

Sequence: QVQLVESGGGLDQAGGSLRLSCAASGRISVFYAMGWYRQAPGKERELVAAISRGSSTYYADSVKGLFTISRDNAKNTVYLQMNSLKPEETAVYYCNRARYYLYDGGYWGQGTQVTVSS
- polyreactivity (PSR sort gate): high polyreactivity

Sequence: QVQLVESGGGLDQAGGSLRLSCAASGRTFGVYAMGWYRQAPGKERELVAAITGRGGSTYYADSVKGRFTISRDNAKNTVYLQMNSLKPEDTAVYYCNAELYEYQSWDDYWGQGTQVTVSS
- polyreactivity (PSR sort gate): low polyreactivity

Sequence: QVQLVESGGGLDQAGGSLRLSCAASGRTFKPYAMGWYRQAPGKERELVARISGSGGSTYYADSVKGRFSISRDNAKNTVYLQMNSLKPEDTAVYYCATTPYYWFDYWGQGTQVTVSS
- polyreactivity (PSR sort gate): low polyreactivity

Sequence: QVQLVESGGGLDQAGGSLRLSCAASGRTFPYNTMGWYRQAPGKERELVASITYTDGSTSYADSVKGRFTISRDNAKNTVYLQMNSLKPEDTSVYYCAADYYAHQDYRFDYWGQGTQVTVSS
- polyreactivity (PSR sort gate): low polyreactivity

Sequence: QVQLVESGGGLDQAGGSLRLSCAASGRTFTRYALCWYRQAPGNVRELVATMTRGARTYYADSVKGRFTISRDNAKNTVYLQMNSLKPVDTAVYYCNAVYSFLSPDQMGYWGQGTQVTVSS
- polyreactivity (PSR sort gate): high polyreactivity

Sequence: QVQLVESGGGLDQAGGSLRLSCAASGRTFYSYAMGWYRQAPGKERELVAAITSGGRTKYADSVKGRFTISRDNAKNTVYLQMNSLKAEDTAVYYCAADRVSYYTTPYDYWGQGTQVTVSS
- polyreactivity (PSR sort gate): high polyreactivity

Sequence: QVQLVESGGGLDQAGGSLRLSCAASGRTLSRYAMGWYRQAPGKERELVASMSWSGGRTYYADSVKGRFTISRDNAKNTVYLEMNSLKPEDTAVYYCAAVYVTAPFDYWGQGTQVTVSS
- polyreactivity (PSR sort gate): low polyreactivity

Sequence: QVQLVESGGGLDQAGGSLRLSCAASGSIFAGYAMGWYRQAHGKERELVAAINWTGDSTYYADSVKGRFTISRDNAKNTVYLQMNRLKPEDTAVYYCAAIRRQKGLWDYYYWGQGTQVTVSS
- polyreactivity (PSR sort gate): low polyreactivity

Sequence: QVQLVESGGGLDQAGGSLRLSCAASGSIFDYYTMGWYRQAPGKERELVASITQSGGSTYYADSVKGRFTISRDNAKNTVYLQMTSLKPEDTAVYYCAADGRYVRIRGDYWGQGTQVTVSS
- polyreactivity (PSR sort gate): low polyreactivity

Sequence: QVQLVESGGGLDQAGGSLRLSCAASGSIFFGNAMGWSRQPPGKERELVAAITTSGGSTYYADSVKGRFTISRDNAKNTLYLQMNSLKPEDTAVYYCYARIASWLGSRYEYWGQGTQVTVSS
- polyreactivity (PSR sort gate): low polyreactivity

Sequence: QVQLVESGGGLDQAGGSLRLSCAASGSIFGYAMGWYRQAPGKERELVAAIRWGGGSTYYADSVKGRFTISRDNAKKTVYLQMNSLKPEDTAVYYCAARYYRPGVLANYYWGQGTQVTVSS
- polyreactivity (PSR sort gate): high polyreactivity
